This note sets out measurements from paper PMC3082530 (2011).

For test [1], the target named is T1, subtilisin Carlsberg (Bacillus licheniformis, UniProt P00780).
T1 chain: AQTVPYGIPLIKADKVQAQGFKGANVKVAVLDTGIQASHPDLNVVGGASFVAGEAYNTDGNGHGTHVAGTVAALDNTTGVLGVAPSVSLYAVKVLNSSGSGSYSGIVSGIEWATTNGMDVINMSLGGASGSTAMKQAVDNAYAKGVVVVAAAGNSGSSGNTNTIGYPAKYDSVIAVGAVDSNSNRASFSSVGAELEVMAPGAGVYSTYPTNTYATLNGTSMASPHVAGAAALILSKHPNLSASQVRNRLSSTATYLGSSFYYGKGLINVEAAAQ
The experiment in a line: ITC.

In test [2] the target is T1, subtilisin Carlsberg. The test is described as follows: ITC; given as Ka.

B1: VCTEEY peptide (CrSPI-1 domain 2 RSL) (peptide)
chain: VCTEEY
On to B1, for which the dissociation constant Kd in test [1] turned out to be 500 µM; in test [2], 526 µM.
